Measured values: CN111705065A

Biological target: 重组KRAS突变体蛋白 (KRAS Mut)
Assay: indirect ELISA, KRAS Mut coated at 1 μg/mL, antibody diluted 1:10^3 to 1:10^6, HRP goat anti-mouse, OD450

Chain of 重组KRAS突变体蛋白 (KRAS Mut) (chain, as listed by the source limits assumed): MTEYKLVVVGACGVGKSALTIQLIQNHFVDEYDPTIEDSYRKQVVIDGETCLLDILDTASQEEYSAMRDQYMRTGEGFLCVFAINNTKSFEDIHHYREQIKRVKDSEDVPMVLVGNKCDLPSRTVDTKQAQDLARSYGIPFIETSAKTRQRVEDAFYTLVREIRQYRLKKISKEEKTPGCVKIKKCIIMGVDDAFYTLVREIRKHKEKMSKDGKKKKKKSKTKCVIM

B1: 抗KRAS突变体单克隆抗体 KRAS Mut mAb (antibody, V domains shown)
VH: QIQLQESGPGLVKPSQSLSLTCTVTGYSITSDYAWNWIRQFPGNKLEWMGYINYSGSTSYNPSLKSRISITRDTSKNQFFLQLISVTSEDTATYYCAGSGYVRGFAYWGQGTLVTVSA
VL: DICKTQSHKFMSTSVGDRVSITCKASQDVGTAVAWYQQKPGQSPKLLIYWASTRHTGVPDRFTGSESGTDFTLTISNVQSEDLADYFCQQYSSYPYTFGGGTKLEIKR
效价 (ELISA titer) (dilution factor (1:x)): 100000
